B1: HA-tagged mPR mutant S56A/S180A (receptor)
chain: not shown
notes: also called mPR-3HA S56A/S180A; not shown: C-terminal 3xHA tag
B2: HA-tagged mPR mutant S56A (receptor)
chain: not shown
notes: also called mPR-3HA S56A; not shown: C-terminal 3xHA tag
B3: HA-tagged mPR mutant S180A (receptor)
chain: not shown
notes: also called mPR-3HA S180A; not shown: C-terminal 3xHA tag
B4: HA-tagged mPR mutant S56A/C128S/S180A (receptor)
chain: not shown
notes: not shown: C-terminal 3xHA tag

The binders below were run against T1, deleted in colorectal cancer (DCC) (human, UniProt P43146 26-1447) (assay: co-immunoprecipitation (anti-HA) from transfected MCF-7 cells, Western blot with anti-DCC AF5).
T1 construct: Endogenous DCC of MCF-7 cells, detected by Western blot in the anti-HA immunoprecipitate; also called DCC/Unc-40
T1 sequence (P43146 26-1447 limits assumed): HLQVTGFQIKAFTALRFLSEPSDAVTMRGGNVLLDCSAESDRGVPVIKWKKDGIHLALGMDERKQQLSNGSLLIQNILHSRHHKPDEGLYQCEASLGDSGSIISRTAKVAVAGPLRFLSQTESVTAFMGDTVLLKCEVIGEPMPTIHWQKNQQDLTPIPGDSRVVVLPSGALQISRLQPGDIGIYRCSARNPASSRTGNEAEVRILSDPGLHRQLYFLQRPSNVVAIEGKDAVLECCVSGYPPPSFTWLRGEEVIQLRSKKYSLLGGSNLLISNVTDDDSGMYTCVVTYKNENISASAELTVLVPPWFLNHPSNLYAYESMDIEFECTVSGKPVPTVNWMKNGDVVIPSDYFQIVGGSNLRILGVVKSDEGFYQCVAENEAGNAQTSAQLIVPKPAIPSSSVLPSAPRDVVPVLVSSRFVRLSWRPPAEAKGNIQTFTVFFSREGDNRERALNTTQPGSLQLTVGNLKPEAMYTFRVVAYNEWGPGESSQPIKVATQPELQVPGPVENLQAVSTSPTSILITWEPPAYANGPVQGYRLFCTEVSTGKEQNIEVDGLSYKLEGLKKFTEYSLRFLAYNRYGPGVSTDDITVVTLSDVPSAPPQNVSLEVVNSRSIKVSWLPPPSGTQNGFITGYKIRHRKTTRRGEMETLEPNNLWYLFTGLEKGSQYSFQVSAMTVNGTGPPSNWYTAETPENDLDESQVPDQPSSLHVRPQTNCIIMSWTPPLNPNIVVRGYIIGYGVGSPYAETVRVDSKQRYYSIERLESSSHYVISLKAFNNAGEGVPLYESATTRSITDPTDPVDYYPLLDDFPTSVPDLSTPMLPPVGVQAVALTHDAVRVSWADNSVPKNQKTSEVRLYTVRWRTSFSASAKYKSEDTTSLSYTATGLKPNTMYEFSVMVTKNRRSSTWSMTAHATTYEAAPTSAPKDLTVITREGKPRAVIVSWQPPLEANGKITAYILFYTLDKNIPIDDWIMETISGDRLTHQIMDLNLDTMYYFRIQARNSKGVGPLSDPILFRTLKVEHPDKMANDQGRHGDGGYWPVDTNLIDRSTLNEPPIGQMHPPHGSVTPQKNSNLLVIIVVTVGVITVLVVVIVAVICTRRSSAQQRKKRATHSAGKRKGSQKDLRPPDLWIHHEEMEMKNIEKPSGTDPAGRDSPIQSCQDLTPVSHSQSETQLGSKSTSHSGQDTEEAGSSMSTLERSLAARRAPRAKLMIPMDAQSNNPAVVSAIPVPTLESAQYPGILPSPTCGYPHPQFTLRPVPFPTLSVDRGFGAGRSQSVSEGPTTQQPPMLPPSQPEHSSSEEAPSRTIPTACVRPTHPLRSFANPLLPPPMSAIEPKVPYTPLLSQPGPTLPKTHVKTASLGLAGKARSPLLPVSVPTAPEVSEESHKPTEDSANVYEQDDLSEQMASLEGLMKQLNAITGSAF
Description: MCF-7 breast cancer cells were transfected by Lipofection with 5 μg of pcDNA3.1 containing HA-tagged mPR-wt, tagged mutant S56A, S180A, S56A/S180A, or tagged mutant S56A/C128S/[…]. After transfection of 2×10⁶ cells they were cultured in RPMI-Medium with 5% FCS. For IP the cells were trypsinized, counted and cell pellets were snap frozen and stored at −80° C.
Beads were separated by centrifugation and stored at −80° C. […] Incubation was performed for 16 h at 4° C. in a rotating tube. Then, beads were separated by centrifugation and washed twice with ice cold lysis buffer.
For PAGE gel-loading buffer/mercatoethanol was added to beads and the final supernatant, heated to 95° C. for 5 min and loaded on a 10% polyacrylamide gel. After separation of the proteins, western blot was performed onto nitrocellulose membrane. Transfer was controlled by Ponceau-red staining visualizing protein bands. After destaining the membranes were blocked for 16 h at 4° C. with 5% milkpowder/0.05% Tween. The next day membranes were incubated with mouse monoclonal anti-DCC antibody (1:20) (Biozol/Abcam) for 2 h at RT followed by biotinylated anti-mouse IgG antibody (Vecta Stain). For detection, membranes were incubated with streptavidin/HRP complex (DAKO) for 2 h at RT followed by enhanced chemiluminescence (ECL) treatment and measurement of chemiluminescence using a Lumiimager (Roche). As a loading control, membranes were incubated with rabbit polyclonal Actin I-19 antibody (Santa Cruz).

Binding result, no binding:
B1
B2
B3
B4

— patent publication US20090061461A1 (published 2009)
